# In article doi:10.1101/2021.10.20.465084 (bioRxiv, 2021):
# Positions of bridges follow the written chain, without caps; N, C: chain ends. No end group written: not given here. *: point of attachment. Biotin = O=C1N[C@H]2[C@H](CS[C@H]2CCCCC(=O)*)N1; βAla = NCCC(=O)O
# T1: Prefoldin from Pyrococcus horikoshii (PhPFD-α2β4 heterohexamer, 86.4 kDa) (Pyrococcus horikoshii, UniProt O58263 1-148; O58268 1-117, S98G)
# T1 sequence 1: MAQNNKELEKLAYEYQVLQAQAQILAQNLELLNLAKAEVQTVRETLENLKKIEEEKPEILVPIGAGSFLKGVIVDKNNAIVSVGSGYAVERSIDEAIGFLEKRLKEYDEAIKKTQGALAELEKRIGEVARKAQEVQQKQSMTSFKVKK
# T1 sequence 2: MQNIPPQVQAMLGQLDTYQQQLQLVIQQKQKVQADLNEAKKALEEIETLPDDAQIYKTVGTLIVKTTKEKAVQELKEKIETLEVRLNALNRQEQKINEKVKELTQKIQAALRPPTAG
# Key:
# [1] = target: T1, Prefoldin from Pyrococcus horikoshii …; test: NMR titration
# [2] = target: T1, Prefoldin from Pyrococcus horikoshii …; test: BLI
Kd [1],koff [1],Kd [2],Binder
61 µM,~6000 s⁻¹,,"KCNTATCATQRLANFLVHSSNNFGAILSSTNVGSNTY (ends and bridges not checked; also: uniformly [15N]-labelled) [U-[15N]-labelled human islet amyloid polypeptide (IAPP), recombinant, monomeric]"
,,16 ± 2.4 µM,{Biotin-βAla-βAla}-KCNTATCATQRLANFLVHSSNNFGAILSSTNVGSNTY-NH2 (disulfide 2-7; SMILES CC[C@H](C)[C@H](NC(=O)[C@H](C)NC(=O)CNC(=O)[C@H](Cc1ccccc1)NC(=O)[C@H](CC(N)=O)NC(=O)[C@H](CC(N)=O)NC(=O)[C@H](CO)NC(=O)[C@H](CO)NC(=O)[C@H](Cc1c[nH]cn1)NC(=O)[C@@H](NC(=O)[C@H](CC(C)C)NC(=O)[C@H](Cc1ccccc1)NC(=O)[C@H](CC(N)=O)NC(=O)[C@H](C)NC(=O)[C@H](CC(C)C)NC(=O)[C@H](CCCNC(=N)N)NC(=O)[C@H](CCC(N)=O)NC(=O)[C@@H](NC(=O)[C@H](C)NC(=O)[C@@H]1CSSC[C@H](NC(=O)[C@H](CCCCN)NC(=O)CCNC(=O)CCNC(=O)CCCC[C@@H]2SC[C@@H]3NC(=O)N[C@@H]32)C(=O)N[C@@H](CC(N)=O)C(=O)N[C@@H]([C@@H](C)O)C(=O)N[C@@H](C)C(=O)N[C@@H]([C@@H](C)O)C(=O)N1)[C@@H](C)O)C(C)C)C(=O)N[C@@H](CC(C)C)C(=O)N[C@@H](CO)C(=O)N[C@@H](CO)C(=O)N[C@H](C(=O)N[C@@H](CC(N)=O)C(=O)N[C@H](C(=O)NCC(=O)N[C@@H](CO)C(=O)N[C@@H](CC(N)=O)C(=O)N[C@H](C(=O)N[C@@H](Cc1ccc(O)cc1)C(N)=O)[C@@H](C)O)C(C)C)[C@@H](C)O) [biotinylated IAPP (biotinyl-[β-Ala]-[β-Ala]-IAPP-NH2)]
